Experimental data published in article PMC4437705 (Nature, 2013).

Legend:
[1] = molecular target: the molecule itself; assay: crystal structure
[2] = molecular target: T1, apo-FabA (E. coli fatty acid 3-hydroxyacyl-ACP dehydratase, unlabeled, not crosslinked) (E. coli, UniProt P0A6Q3 2-172); assay: NMR titration
T1 sequence: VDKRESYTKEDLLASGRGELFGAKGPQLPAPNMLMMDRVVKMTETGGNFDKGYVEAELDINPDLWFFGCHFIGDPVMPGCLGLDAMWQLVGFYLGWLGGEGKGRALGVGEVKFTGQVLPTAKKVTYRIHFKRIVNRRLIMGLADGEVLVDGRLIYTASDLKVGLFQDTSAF

B1: FabA (E. coli fatty acid 3-hydroxyacyl-ACP dehydratase) as in the crosslinked AcpP=FabA complex (enzyme)
chain: VDKRESYTKEDLLASGRGELFGAKGPQLPAPNMLMMDRVVKMTETGGNFDKGYVEAELDINPDLWFFGCHFIGDPVMPGCLGLDAMWQLVGFYLGWLGGEGKGRALGVGEVKFTGQVLPTAKKVTYRIHFKRIVNRRLIMGLADGEVLVDGRLIYTASDLKVGLFQDTSAF
modifications: H70 covalently connected through probe 1 to S36 of AcpP
[1]
  stoichiometry N: 2

B2: holo-AcpP (E. coli acyl carrier protein with 4'-phosphopantetheine) (natural protein)
chain: STIEERVKKIIGEQLGVKQEEVTNNASFVEDLGADSLDTVELVMALEEEFDTEIPDEEAEKITTVQAAIDYINGHQA
modifications: 4'-phosphopantetheine (PPant) on S36
[2]
  binding result: binds

B3: octanoyl-AcpP (E. coli acyl carrier protein with octanoyl-4'-phosphopantetheine) (natural protein)
chain: STIEERVKKIIGEQLGVKQEEVTNNASFVEDLGADSLDTVELVMALEEEFDTEIPDEEAEKITTVQAAIDYINGHQA
modifications: octanoyl chain on the PPant arm attached to S36
[2]
  binding result: binds
